In patent publication US20250295737A1 (AstraZeneca / MedImmune, published 2025):

Experiments:
Experiment in all cases: cell-based or functional assay
mouse RXFP1 = biological target: T1, mouse RXFP1 (mouse, UniProt Q6R6I7 1-758)
T1 sequence (looked up): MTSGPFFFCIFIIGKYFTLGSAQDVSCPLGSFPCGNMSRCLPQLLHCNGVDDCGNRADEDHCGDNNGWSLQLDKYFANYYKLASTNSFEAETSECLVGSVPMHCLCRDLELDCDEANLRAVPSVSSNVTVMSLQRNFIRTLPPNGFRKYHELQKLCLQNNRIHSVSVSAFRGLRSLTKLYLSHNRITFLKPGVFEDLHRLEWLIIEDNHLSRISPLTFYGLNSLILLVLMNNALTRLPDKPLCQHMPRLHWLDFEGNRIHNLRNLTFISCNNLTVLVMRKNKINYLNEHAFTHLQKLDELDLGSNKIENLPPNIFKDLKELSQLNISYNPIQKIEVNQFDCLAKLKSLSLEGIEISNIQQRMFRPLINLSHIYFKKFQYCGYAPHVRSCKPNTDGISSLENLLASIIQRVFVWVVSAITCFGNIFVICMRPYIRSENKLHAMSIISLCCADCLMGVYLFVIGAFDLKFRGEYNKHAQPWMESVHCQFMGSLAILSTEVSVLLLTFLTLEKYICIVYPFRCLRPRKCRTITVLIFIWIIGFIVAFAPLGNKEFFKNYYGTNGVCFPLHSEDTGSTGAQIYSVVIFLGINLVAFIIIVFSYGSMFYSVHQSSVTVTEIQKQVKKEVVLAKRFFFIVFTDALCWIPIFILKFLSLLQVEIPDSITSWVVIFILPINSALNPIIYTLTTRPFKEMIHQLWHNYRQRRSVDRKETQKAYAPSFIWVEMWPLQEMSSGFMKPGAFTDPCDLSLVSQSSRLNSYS

human RXFP2 = human RXFP2 (human, UniProt Q8WXD0 1-754)
Chain of human RXFP2 (Q8WXD0 whole entry): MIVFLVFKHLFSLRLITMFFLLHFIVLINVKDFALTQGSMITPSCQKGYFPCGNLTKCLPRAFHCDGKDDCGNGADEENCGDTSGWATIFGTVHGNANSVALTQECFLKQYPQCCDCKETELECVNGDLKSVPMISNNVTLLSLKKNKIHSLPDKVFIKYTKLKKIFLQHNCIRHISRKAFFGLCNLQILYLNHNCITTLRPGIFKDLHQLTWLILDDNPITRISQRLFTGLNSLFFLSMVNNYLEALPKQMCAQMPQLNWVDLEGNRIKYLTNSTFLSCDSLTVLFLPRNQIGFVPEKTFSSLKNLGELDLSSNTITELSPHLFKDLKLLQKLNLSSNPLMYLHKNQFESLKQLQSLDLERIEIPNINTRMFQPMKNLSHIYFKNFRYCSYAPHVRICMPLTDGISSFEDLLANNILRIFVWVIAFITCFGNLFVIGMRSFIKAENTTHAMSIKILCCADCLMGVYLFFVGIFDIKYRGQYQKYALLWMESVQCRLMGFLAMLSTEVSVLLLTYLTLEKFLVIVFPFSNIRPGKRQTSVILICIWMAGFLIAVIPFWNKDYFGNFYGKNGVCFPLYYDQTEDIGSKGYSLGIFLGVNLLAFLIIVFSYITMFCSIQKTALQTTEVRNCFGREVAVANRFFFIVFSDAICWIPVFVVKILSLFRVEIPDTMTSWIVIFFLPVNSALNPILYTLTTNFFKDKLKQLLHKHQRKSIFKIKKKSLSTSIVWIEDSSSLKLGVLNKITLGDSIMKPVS

human RXFP1 = biological target: T2, human RXFP1 (human, UniProt Q9HBX9 1-757)
T2 sequence (looked up): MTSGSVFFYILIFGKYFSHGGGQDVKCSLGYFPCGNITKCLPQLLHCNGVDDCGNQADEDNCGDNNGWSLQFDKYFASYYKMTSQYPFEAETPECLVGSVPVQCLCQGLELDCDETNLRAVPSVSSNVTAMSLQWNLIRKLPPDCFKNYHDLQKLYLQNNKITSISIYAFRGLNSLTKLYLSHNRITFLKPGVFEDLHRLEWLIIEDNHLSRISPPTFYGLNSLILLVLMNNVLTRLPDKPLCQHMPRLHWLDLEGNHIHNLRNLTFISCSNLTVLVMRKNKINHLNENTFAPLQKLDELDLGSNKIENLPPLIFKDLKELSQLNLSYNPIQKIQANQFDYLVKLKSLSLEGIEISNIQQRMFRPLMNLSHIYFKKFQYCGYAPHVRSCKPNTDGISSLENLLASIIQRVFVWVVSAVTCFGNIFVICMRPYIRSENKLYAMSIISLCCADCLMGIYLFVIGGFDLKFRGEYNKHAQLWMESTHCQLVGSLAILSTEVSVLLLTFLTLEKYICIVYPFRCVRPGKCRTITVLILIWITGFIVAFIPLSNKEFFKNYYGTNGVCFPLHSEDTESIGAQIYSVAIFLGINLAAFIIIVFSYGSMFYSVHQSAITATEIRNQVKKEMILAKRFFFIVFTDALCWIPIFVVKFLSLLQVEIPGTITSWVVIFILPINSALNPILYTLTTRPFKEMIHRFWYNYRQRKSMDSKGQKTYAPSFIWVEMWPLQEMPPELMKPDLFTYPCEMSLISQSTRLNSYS

B1: RELAX0056 (Fc fusion)
chain 1: DKTHTCPPCPAPEFEGGPSVFLFPPKPKDTLMISRTPEVTCVVVDVSHEDPEVKFNWYVDGVEVHNAKTKPREEQYNSTYRVVSVLTVLHQDWLNGKEYKCKVSNKALPASIEKTISKAKGQPREPQVYTLPPCREEMTKNQVSLWCLVKGFYPSDIAVEWESNGQPENNYKTTPPVLDSDGSFFLYSKLTVDKSRWQQGNVFSCSVMHEALHNHYTQKSLSLSPGAPAPAPAPAPAPAPAPAPAGSQLYSALANKCCHVGCTKRSLARFC
chain 2: DKTHTCPPCPAPEFEGGPSVFLFPPKPKDTLMISRTPEVTCVVVDVSHEDPEVKFNWYVDGVEVHNAKTKPREEQYNSTYRVVSVLTVLHQDWLNGKEYKCKVSNKALPASIEKTISKAKGQPREPQVCTLPPSREEMTKNQVSLSCAVKGFYPSDIAVEWESNGQPENNYKTTPPVLDSDGSFFLVSKLTVDKSRWQQGNVFSCSVMHEALHNHYTQKSLSLSPGAPAPAPAPAPAPAPAPAPAGSSWMEEVIKLCGRELVRAQIAICGMSTWS
- EC50 mRXFP1 (M), cAMP HTRF assay (mouse RXFP1): 3.27e-11 M
- EC50 hRXFP2 (M), cAMP HTRF assay (human RXFP2): 6.48e-08 M
- EC50 hRXFP1 (M), cAMP HTRF assay (human RXFP1): 3.87e-11 M

B2: RELAX0083 (Fc fusion)
chain 1: DKTHTCPPCPAPEFEGGPSVFLFPPKPKDTLMISRTPEVTCVVVDVSHEDPEVKFNWYVDGVEVHNAKTKPREEQYNSTYRVVSVLTVLHQDWLNGKEYKCKVSNKALPASIEKTISKAKGQPREPQVYTLPPCREEMTKNQVSLWCLVKGFYPSDIAVEWESNGQPENNYKTTPPVLDSDGSFFLYSKLTVDKSRWQQGNVFSCSVMHEALHNHYTQKSLSLSPGGGGGGSQLYSALANKCCHVGCTKRSLARFC
chain 2: DKTHTCPPCPAPEFEGGPSVFLFPPKPKDTLMISRTPEVTCVVVDVSHEDPEVKFNWYVDGVEVHNAKTKPREEQYNSTYRVVSVLTVLHQDWLNGKEYKCKVSNKALPASIEKTISKAKGQPREPQVCTLPPSREEMTKNQVSLSCAVKGFYPSDIAVEWESNGQPENNYKTTPPVLDSDGSFFLVSKLTVDKSRWQQGNVFSCSVMHEALHNHYTQKSLSLSPGGGGGGSSWMEEVIKLCGRELVRAQIAICGMSTWS
- EC50 mRXFP1 (M), cAMP HTRF assay (mouse RXFP1): 1.34e-11 M
- EC50 hRXFP2 (M), cAMP HTRF assay (human RXFP2): 2.42e-08 M
- EC50 hRXFP1 (M), cAMP HTRF assay (human RXFP1): 2.81e-11 M

B3: RELAX0081 (Fc fusion)
chain 1: DKTHTCPPCPAPEFEGGPSVFLFPPKPKDTLMISRTPEVTCVVVDVSHEDPEVKFNWYVDGVEVHNAKTKPREEQYNSTYRVVSVLTVLHQDWLNGKEYKCKVSNKALPASIEKTISKAKGQPREPQVYTLPPCREEMTKNQVSLWCLVKGFYPSDIAVEWESNGQPENNYKTTPPVLDSDGSFFLYSKLTVDKSRWQQGNVFSCSVMHEALHNHYTQKSLSLSPGGGGGSGGGGSGGGGGSQLYSALANKCCHVGCTKRSLARFC
chain 2: DKTHTCPPCPAPEFEGGPSVFLFPPKPKDTLMISRTPEVTCVVVDVSHEDPEVKFNWYVDGVEVHNAKTKPREEQYNSTYRVVSVLTVLHQDWLNGKEYKCKVSNKALPASIEKTISKAKGQPREPQVCTLPPSREEMTKNQVSLSCAVKGFYPSDIAVEWESNGQPENNYKTTPPVLDSDGSFFLVSKLTVDKSRWQQGNVFSCSVMHEALHNHYTQKSLSLSPGGGGGSGGGGSGGGGGSSWMEEVIKLCGRELVRAQIAICGMSTWS
- EC50 mRXFP1 (M), cAMP HTRF assay (mouse RXFP1): 4.73e-11 M
- EC50 hRXFP2 (M), cAMP HTRF assay (human RXFP2): 4.92e-08 M
- EC50 hRXFP1 (M), cAMP HTRF assay (human RXFP1): 4.51e-11 M

B4: RELAX0109 (Fc fusion)
chain 1: DKTHTCPPCPAPEFEGGPSVFLFPPKPKDTLMISRTPEVTCVVVDVSHEDPEVKFNWYVDGVEVHNAKTKPREEQYNSTYRVVSVLTVLHQDWLNGKEYKCKVSNKALPASIEKTISKAKGQPREPQVYTLPPCREEMTKNQVSLWCLVKGFYPSDIAVEWESNGQPENNYKTTPPVLDSDGSFFLYSKLTVDKSRWQQGNVFSCSVMHEALHNHYTQKSLSLSPGGGGGSGGGGSGGGGGSQLYSALANKCCHVGCTKRSLARFC
chain 2: DKTHTCPPCPAPEFEGGPSVFLFPPKPKDTLMISRTPEVTCVVVDVSHEDPEVKFNWYVDGVEVHNAKTKPREEQYNSTYRVVSVLTVLHQDWLNGKEYKCKVSNKALPASIEKTISKAKGQPREPQVYTLPPCREEMTKNQVSLWCLVKGFYPSDIAVEWESNGQPENNYKTTPPVLDSDGSFFLYSKLTVDKSRWQQGNVFSCSVMHEALHNHYTQKSLSLSPGAAPAPAPAPAPAPAGSSWMEEVIKLCGRELVRAQIAICGMSTWS
- EC50 mRXFP1 (M), cAMP HTRF assay (mouse RXFP1): 8.22e-10 M
- EC50 hRXFP1 (M), cAMP HTRF assay (human RXFP1): 1.72e-09 M

B5: RELAX0054 (Fc fusion)
chain 1: DKTHTCPPCPAPEFEGGPSVFLFPPKPKDTLMISRTPEVTCVVVDVSHEDPEVKFNWYVDGVEVHNAKTKPREEQYNSTYRVVSVLTVLHQDWLNGKEYKCKVSNKALPASIEKTISKAKGQPREPQVCTLPPSREEMTKNQVSLSCAVKGFYPSDIAVEWESNGQPENNYKTTPPVLDSDGSFFLVSKLTVDKSRWQQGNVFSCSVMHEALHNHYTQKSLSLSPGAAPAPAPAPAPAPAGSQLYSALANKCCHVGCTKRSLARFC
chain 2: DKTHTCPPCPAPEFEGGPSVFLFPPKPKDTLMISRTPEVTCVVVDVSHEDPEVKFNWYVDGVEVHNAKTKPREEQYNSTYRVVSVLTVLHQDWLNGKEYKCKVSNKALPASIEKTISKAKGQPREPQVYTLPPCREEMTKNQVSLWCLVKGFYPSDIAVEWESNGQPENNYKTTPPVLDSDGSFFLYSKLTVDKSRWQQGNVFSCSVMHEALHNHYTQKSLSLSPGAAPAPAPAPAPAPAGSSWMEEVIKLCGRELVRAQIAICGMSTWS
- EC50 mRXFP1 (M), cAMP HTRF assay (mouse RXFP1): 1.59e-11 M
- EC50 hRXFP2 (M), cAMP HTRF assay (human RXFP2): 1.53e-08 M
- EC50 hRXFP1 (M), cAMP HTRF assay (human RXFP1): 2.89e-11 M

B6: RELAX0082 (Fc fusion)
chain 1: DKTHTCPPCPAPEFEGGPSVFLFPPKPKDTLMISRTPEVTCVVVDVSHEDPEVKFNWYVDGVEVHNAKTKPREEQYNSTYRVVSVLTVLHQDWLNGKEYKCKVSNKALPASIEKTISKAKGQPREPQVYTLPPCREEMTKNQVSLWCLVKGFYPSDIAVEWESNGQPENNYKTTPPVLDSDGSFFLYSKLTVDKSRWQQGNVFSCSVMHEALHNHYTQKSLSLSPGGGGGSGGGGGSQLYSALANKCCHVGCTKRSLARFC
chain 2: DKTHTCPPCPAPEFEGGPSVFLFPPKPKDTLMISRTPEVTCVVVDVSHEDPEVKFNWYVDGVEVHNAKTKPREEQYNSTYRVVSVLTVLHQDWLNGKEYKCKVSNKALPASIEKTISKAKGQPREPQVCTLPPSREEMTKNQVSLSCAVKGFYPSDIAVEWESNGQPENNYKTTPPVLDSDGSFFLVSKLTVDKSRWQQGNVFSCSVMHEALHNHYTQKSLSLSPGGGGGSGGGGGSSWMEEVIKLCGRELVRAQIAICGMSTWS
- EC50 mRXFP1 (M), cAMP HTRF assay (mouse RXFP1): 4.9e-11 M
- EC50 hRXFP2 (M), cAMP HTRF assay (human RXFP2): 3.81e-08 M
- EC50 hRXFP1 (M), cAMP HTRF assay (human RXFP1): 5.68e-11 M

B7: RELAX0055 (Fc fusion)
chain 1: DKTHTCPPCPAPEFEGGPSVFLFPPKPKDTLMISRTPEVTCVVVDVSHEDPEVKFNWYVDGVEVHNAKTKPREEQYNSTYRVVSVLTVLHQDWLNGKEYKCKVSNKALPASIEKTISKAKGQPREPQVYTLPPCREEMTKNQVSLWCLVKGFYPSDIAVEWESNGQPENNYKTTPPVLDSDGSFFLYSKLTVDKSRWQQGNVFSCSVMHEALHNHYTQKSLSLSPGAPAPAPAPAGSQLYSALANKCCHVGCTKRSLARFC
chain 2: DKTHTCPPCPAPEFEGGPSVFLFPPKPKDTLMISRTPEVTCVVVDVSHEDPEVKFNWYVDGVEVHNAKTKPREEQYNSTYRVVSVLTVLHQDWLNGKEYKCKVSNKALPASIEKTISKAKGQPREPQVCTLPPSREEMTKNQVSLSCAVKGFYPSDIAVEWESNGQPENNYKTTPPVLDSDGSFFLVSKLTVDKSRWQQGNVFSCSVMHEALHNHYTQKSLSLSPGAPAPAPAPAGSSWMEEVIKLCGRELVRAQIAICGMSTWS
- EC50 mRXFP1 (M), cAMP HTRF assay (mouse RXFP1): 1.51e-11 M
- EC50 hRXFP2 (M), cAMP HTRF assay (human RXFP2): 3.39e-08 M
- EC50 hRXFP1 (M), cAMP HTRF assay (human RXFP1): 1.88e-11 M
